Measured values as given in patent KR20140021799A (dated 2014).

Biological target: T1, CD2 항원 (Jurkat T 세포 / T 림프구 표면) (UniProt P06729 25-351, limits assumed)
T1 construct: whole, on cells; also called CD2-positive Jurkat T 세포
T1 sequence (looked up): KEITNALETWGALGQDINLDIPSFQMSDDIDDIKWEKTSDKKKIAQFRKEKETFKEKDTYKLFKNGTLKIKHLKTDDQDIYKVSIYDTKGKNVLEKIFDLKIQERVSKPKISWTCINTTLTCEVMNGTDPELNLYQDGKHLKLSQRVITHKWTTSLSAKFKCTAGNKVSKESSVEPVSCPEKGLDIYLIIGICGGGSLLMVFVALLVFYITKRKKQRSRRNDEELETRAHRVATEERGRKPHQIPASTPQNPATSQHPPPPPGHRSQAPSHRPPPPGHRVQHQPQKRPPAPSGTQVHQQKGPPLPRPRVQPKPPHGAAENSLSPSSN
Experiment: cell-based ELISA on Jurkat T cells, FcR blocker, anti-6X HIS tag-HRP detection

binding result: binds
B1: anti-CD20 scFv-LFA3-1 (other)
chain: FSQQIYGTWKGDVTFHVPSNVPLKEVLWKKQKDKVAELENSEFRAFSDFKGRVYLDTVSGSLTINSLQSEDFGEYEMESPNITDTMKFFLYVLESLPSPTEFGGGGSGGSGSGGGQVQLQQPGAELVKPGASVKMSCKASGYTFTSYNMHWVKQTPGRGLEWIGAIYPGNGDTSYNQKFKGKATLTADKSSSTAYMQLSSLTSEDSAVYYCARSTYYGGDWYFNVWGAGTTVTVSAGGGGSGGGGSGGGGSQIVLSQSPAILSASPGEKVTMTCRASSSVSYIHWFQQKPGSSPKPWIYATSNLASGVPVRFSGSGSGTSYSLTISRVEAEDAATYYCQQWTSNPPTFGGGTKLEIK
